# Measurements from US20190247519.
# What was measured:
# Test in all cases: cell_activity
# [1] = tested on: ZF11xHunt-Kox-1 (ZF-Kox-1) (artificial (human Zif268 scaffold))
# [2] = tested on: mZF11-ZF87 (mZF-ZF87, mZF-KRAB) (artificial (mouse Zif268 scaffold)); details: R6/1 mice, 2 weeks after AAV injection; mZF-ZF87 design given as SEQ 50 (p342), legend of FIG. 13 cites SEQ 49
# [3] = tested on: ZF6xHunt-Kox-1 (artificial (human Zif268 scaffold)); details: mRNA repression up to 2.5-fold (60%); protein 2-fold; STHdh cells 20 days
# Sequence of ZF6xHunt-Kox-1 (artificial (human Zif268 scaffold)) (chain, as listed by the source): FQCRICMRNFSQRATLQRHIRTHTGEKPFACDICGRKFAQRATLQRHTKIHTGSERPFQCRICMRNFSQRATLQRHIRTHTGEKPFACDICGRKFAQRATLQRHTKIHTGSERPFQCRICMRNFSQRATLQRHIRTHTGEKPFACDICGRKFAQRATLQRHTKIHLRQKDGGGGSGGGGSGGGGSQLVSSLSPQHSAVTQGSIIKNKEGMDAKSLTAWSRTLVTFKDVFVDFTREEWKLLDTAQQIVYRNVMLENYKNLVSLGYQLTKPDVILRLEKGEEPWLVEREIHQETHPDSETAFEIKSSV
# Sequence of ZF11xHunt-Kox-1 (ZF-Kox-1) (artificial (human Zif268 scaffold)) (chain, as listed by the source): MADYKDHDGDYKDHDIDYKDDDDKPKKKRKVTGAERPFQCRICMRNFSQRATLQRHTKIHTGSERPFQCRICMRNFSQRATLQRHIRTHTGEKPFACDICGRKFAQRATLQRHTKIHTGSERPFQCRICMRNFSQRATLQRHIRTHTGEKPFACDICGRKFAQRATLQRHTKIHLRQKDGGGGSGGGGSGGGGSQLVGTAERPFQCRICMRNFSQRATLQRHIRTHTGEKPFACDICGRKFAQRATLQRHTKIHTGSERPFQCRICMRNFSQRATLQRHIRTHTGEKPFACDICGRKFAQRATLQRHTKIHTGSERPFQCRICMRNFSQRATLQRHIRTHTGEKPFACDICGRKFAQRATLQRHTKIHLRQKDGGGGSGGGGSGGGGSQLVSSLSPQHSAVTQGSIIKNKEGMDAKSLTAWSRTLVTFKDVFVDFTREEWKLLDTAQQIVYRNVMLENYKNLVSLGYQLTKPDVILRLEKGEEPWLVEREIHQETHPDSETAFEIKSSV
# Sequence of mZF11-ZF87 (mZF-ZF87, mZF-KRAB) (artificial (mouse Zif268 scaffold)) (chain, as listed by the source): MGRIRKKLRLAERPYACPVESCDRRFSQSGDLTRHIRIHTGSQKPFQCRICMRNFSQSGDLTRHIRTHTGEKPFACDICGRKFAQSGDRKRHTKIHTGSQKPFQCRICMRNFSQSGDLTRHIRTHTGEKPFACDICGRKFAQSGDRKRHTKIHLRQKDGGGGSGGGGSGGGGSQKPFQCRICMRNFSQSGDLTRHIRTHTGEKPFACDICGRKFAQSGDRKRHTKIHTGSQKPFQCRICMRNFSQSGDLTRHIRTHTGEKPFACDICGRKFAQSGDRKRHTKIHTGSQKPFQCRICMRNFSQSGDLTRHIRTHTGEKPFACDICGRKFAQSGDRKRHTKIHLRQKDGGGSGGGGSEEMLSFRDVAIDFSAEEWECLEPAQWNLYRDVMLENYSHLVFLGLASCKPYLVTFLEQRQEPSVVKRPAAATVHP
Substance,"activity ([1]; R6/2 mice, 2 weeks after AAV injection, mRNA)",activity [2],"activity ([1]; almost 80% mRNA reduction, 95% protein reduction, STHdh cells 20 days)",activity [3]
mutant HTT transgene in R6/2 or R6/1 mice,35 % reduction,30 % reduction,–,–
chromosomal mutant Htt Q111 (STHdhQ111),–,–,80 % reduction,2.5 fold
